Assay results taken from US20240392003A1 (NUMAB THERAPEUTICS, published 2024).
Like-named read-outs stand apart in the source and are kept apart here.

Assays:
[1] = molecular target: T1, human ROR1 expressed on cells (human, UniProt Q01973 30-937); experiment: flow cytometry, MDA-MB-231 cells
T1 construct: whole, on cells; One molecule for cell-surface ROR1 on all cell lines; the cell line is named under assay; also called hROR1; plasma membrane human ROR1

[2] = molecular target: T2, recombinant human ROR1 protein (Fc-Tag, Acro Biosystems RO1-H5250) (human, UniProt Q01973 30-406); experiment: SPR; hROR1-Fc immobilized
T2 construct: Bought; also called hROR1; recombinant human ROR1 ECD; not shown: Fc tag

[3] = molecular target: T3, human serum albumin (Sigma-Aldrich A3782) (human, UniProt P02768 25-609); experiment: SPR; hSA immobilized, pH 5.5
T3 construct: also called hSA; HSA

[4] = molecular target: T4, human ROR1 (Peprotech 160-054) (human, UniProt Q01973 30-406); experiment: SPR; MATCH4 captured, hROR1 analyte (Affinity)
T4 construct: Bought, used as analyte; also called hROR1; recombinant human ROR1 protein

[5] = molecular target: T5, recombinant human CD3 epsilon extra-cellular domain protein (His-Tag, SinoBiological) (human, UniProt P07766 23-126); experiment: SPR; hCD3ε immobilized, two-state fit (Ka1)
T5 construct: extracellular domain; Bought; also called hCD3ε; human CD3ε; not shown: His tag

[6] = molecular target: T5, recombinant human CD3 epsilon …; experiment: SPR; hCD3ε immobilized, two-state fit
[7] = molecular target: T2, recombinant human ROR1 protein (Fc-Tag, …); experiment: SPR; hROR1-Fc immobilized (Avidity)
[8] = molecular target: T5, recombinant human CD3 epsilon …; experiment: SPR; hCD3ε immobilized, two-state fit (kd1)
[9] = molecular target: T5, recombinant human CD3 epsilon …; experiment: SPR; hCD3ε immobilized, two-state fit (kd1); remark: listed apart in the source
[10] = molecular target: T2, recombinant human ROR1 protein (Fc-Tag, …); experiment: SPR; hROR1-Fc immobilized; remark: listed apart in the source
[11] = molecular target: T5, recombinant human CD3 epsilon …; experiment: SPR; hCD3ε immobilized, two-state fit (ka1)
[12] = molecular target: T5, recombinant human CD3 epsilon …; experiment: SPR; hCD3ε immobilized, two-state fit; remark: listed apart in the source
[13] = molecular target: T1, human ROR1 expressed on cells; experiment: cell-based or functional assay
[14] = molecular target: T1, human ROR1 expressed on cells; experiment: flow cytometry, MDA-MB-231 cells, 1 mg/ml hSA

B1: PRO2292 (scFv, V domains shown)
VH: QSQLVESGGGLVQPGGSLRLSCAVSGLSLSRNAMSWVRQAPGKCLEWIGIILTSGSTYYASWAKGRFTISKDNSKNTVYLQMNSLRAEDTAVYFCVRGIASSSLKSFWGQGTLVTVSS
VL: AQQLTQSPSSLSASVGDRVTITCQASQNVWNNNYLSWFQQKPGKPPKLLIVTASTLASGVSSRFSGSGSGTDFTLTISSLQPEDFATYYCAGGFSGEIRAFGCGTKVTVLG
notes: scFv, PRO2062 with VL-VH interdomain disulfide (AHo 141VL-51VH); also called 55-39-G02-sc05
Question: For B1, which EC50 [1] is on record?
Answer: 0.27 nM

Question: What about the “Rel. maximum binding (MFIscFv/MFIPRO2213)” value [1] of the same binder?
Answer: 1.18

Question: And the Kd [2]?
Answer: 0.0906 nM

Question: What about the koff [2] of the same binder?
Answer: 0.000616 s⁻¹

Question: What about the kon [2] of the same binder?
Answer: 6.8e+06 M⁻¹ s⁻¹

B2: PRO2558 (bispecific antibody)
chain: AFELTQSPSSLSASVGDRVTITCQASESINSRLAWYQQKPGQPPKLLIYDASDLTSGVPSRFSGSGSGTDFTLTISSLQPEDFATYYCQGYGGSSTTTFGCGTKLTVLGGGGGSEVQLVESGGGLVQPGGSLRLSCAASGFSLSSYDMSWVRQAPGKGLAWIGASYASGPTYYASWAKGRFTISRDNSKNTVYLQMNSLRAEDTATYFCARGGWTGTSHSNIWGQGTLVTVSSGGGGSGGGGSGGGGSGGGGSDIQMTQSPSSLSASVGDRVTITCQSSQSVFSNNYLAWFQQKPGQSPKRLIYSASTLASGVPSRFSGSGSGTDFTLTISSLQPEDFATYYCLGSYACSSADCYVFGTGTKVTVLGGGGGSEVQLVESGGGLVQPGGSLRLSCAASGFSLSSYAMNWVRQAPGKCLEWIGHINAGDIAYYATWAKGRFTISRDNSKNTVYLQMNSLRAEDTAVYFCARGAGGFSTGPFKLWGQGTLVTVSS
modifications: Interdomain disulfide in the hSA domain (VH G51C / VL G141C, AHo numbering).
notes: also called 19-04-A10-sc06 scDb-o/28-21-D09-sc04 scDb-i/56-22-A05-sc02 scFv; not shown: C-terminal 56-22-A05-sc02 scFv and the linker leading to it
Question: How did the Kd [3] turn out when B2 was run?
Answer: 4.4 nM

Question: And the koff [3]?
Answer: 0.002 s⁻¹

Question: And the kon [3]?
Answer: 460000 M⁻¹ s⁻¹

B3: PRO2291 (scFv, V domains shown)
VH: QSQVVESGGGLVQPGGSLRLSCAVSGFDLSSYAVSWVRQAPGKCLEWIGIIYPRANTYYASWAKGRFTISKDNSKNTVYLQMNSLRAEDTAVYFCARDRYDSGAYLYTTYFNLWGQGTLVTVSS
VL: DVQMTQSPSSLSASVGDRVTITCRASENIYSGLAWYQQKPGKPPKLLIYRASTLASGVSSRFSGSGSGTDFTLTISSLQPEDFATYYCQGGYYSSSSTYIAFGCGTKVTVLG
notes: scFv, PRO2060 with VL-VH interdomain disulfide (AHo 141VL-51VH); also called 55-38-D07-sc06
Question: Which EC50 [1] does the source give for B3 here?
Answer: 2.74 nM

Question: What about the “Rel. maximum binding (MFIscFv/MFIPRO2213)” value [1] of the same binder?
Answer: 1.18

Question: What about the Kd [2] of the same binder?
Answer: 1.12 nM

Question: What about the koff [2] of the same binder?
Answer: 0.000302 s⁻¹

Question: And the kon [2]?
Answer: 269000 M⁻¹ s⁻¹

B4: PRO2669 (bispecific antibody)
chain 1: DVQMTQSPSSLSASVGDRVTITCRASENIYSGLAWYQQKPGKPPKLLIYRASTLASGVSSRFSGSGSGTDFTLTISSLQPEDFATYYCQGGYYSSSSTYIAFGTGTKVTVLGGGGGSGGGGSGGGGSGGGGSQSQVVESGGGRVQPGGSLRLSCAVSGFDLSSYAVSWVRQAPGKGLEWIGIIYPRANTYYASWAKGRFTISKDNSKNTVYLQMNSLRAEDTATYFCARDRYDSGAYLYTTYFNLWGQGTQVTVSSGGGGSGGGGSAFELTQSPSSLSASVGDRVTITCQASESINSRLAWYQQKPGQPPKLLIYDASDLTSGVPSRFSGSGSGTDFTLTISSLQPEDFATYYCQGYGGSSTTTFGCGTKLTVLGGGSGGSDIQMTQSPSSLSASVGDRVTITCQSSQSVFSNNYLAWFQQKPGQSPKRLIYSASTLASGVPSRFSGSGSGTDFTLTISSLQPEDFATYYCLGSYACSSADCYVFGTGTKVTVLG
chain 2: DVQMTQSPSSLSASVGDRVTITCRASENIYSGLAWYQQKPGKPPKLLIYRASTLASGVSSRFSGSGSGTDFTLTISSLQPEDFATYYCQGGYYSSSSTYIAFGTGTKVTVLGGGGGSGGGGSGGGGSGGGGSQSQVVESGGGRVQPGGSLRLSCAVSGFDLSSYAVSWVRQAPGKGLEWIGIIYPRANTYYASWAKGRFTISKDNSKNTVYLQMNSLRAEDTATYFCARDRYDSGAYLYTTYFNLWGQGTQVTVSSGGGGSGGGGSEVQLVESGGGRVQPGGSLRLSCAASGFSLSSYDMSWVRQAPGKGLAWIGASYASGPTYYASWAKGRFTISRDNSKNTVYLQMNSLRAEDTATYFCARGGWTGTSHSNIWGQGTQVTVSSGGGSGGGSGGGSGEVQLVESGGGRVQPGGSLRLSCAASGFSLSSYAMNWVRQAPGKCLEWIGHINAGDIAYYATWAKGRFTISRDNSKNTVYLQMNSLRAEDTATYFCARGAGGFSTGPFKLWGQGTQVTVSS
notes: heterodimeric MATCH4, modified VH domains, variant of PRO2589; also called MATCH4 with 55-38-D07-sc02(RTQ) / 19-04-A10-sc02(RTQ) diS / 28-21-D09-sc04(RTQ) / 55-38-D07-sc02(RTQ)
Question: With B4 as the binder, how does the Kd [4] read?
Answer: ≤ 0.177 nM

Question: And the koff [4]?
Answer: < 1e-05 s⁻¹

Question: What about the kon [4] of the same binder?
Answer: 56600 M⁻¹ s⁻¹

Question: And the kon [5]?
Answer: 810000 M⁻¹ s⁻¹

Question: What about the Ka2 [6] of the same binder?
Answer: 0.0056 s⁻¹

Question: And the Kd [6]?
Answer: 2.7 nM

Question: What about the Kd2 [6] of the same binder?
Answer: 0.0047 s⁻¹

Question: And the Kd [7]?
Answer: 0.026 nM

Question: What about the koff [7] of the same binder?
Answer: 2.6e-05 s⁻¹

Question: What about the kon [7] of the same binder?
Answer: 1e+06 M⁻¹ s⁻¹

Question: And the koff [8]?
Answer: 0.0047 s⁻¹

B5: PRO2508 (bispecific antibody)
chain: AFELTQSPSSLSASVGDRVTITCQASESINSRLAWYQQKPGQPPKLLIYDASDLTSGVPSRFSGSGSGTDFTLTISSLQPEDFATYYCQGYGGSSTTTFGCGTKLTVLGGGGGSEVQLVESGGGLVQPGGSLRLSCAASGFSLSSYDMSWVRQAPGKGLAWIGASYASGPTYYASWAKGRFTISRDNSKNTVYLQMNSLRAEDTATYFCARGGWTGTSHSNIWGQGTLVTVSSGGGGSGGGGSGGGGSGGGGSDIQMTQSPSSLSASVGDRVTITCQSSQSVFSNNYLAWFQQKPGQSPKRLIYSASTLASGVPSRFSGSGSGTDFTLTISSLQPEDFATYYCLGSYACSSADCYVFGTGTKVTVLGGGGGSEVQLVESGGGLVQPGGSLRLSCAASGFSLSSYAMNWVRQAPGKCLEWIGHINAGDIAYYATWAKGRFTISRDNSKNTVYLQMNSLRAEDTAVYFCARGAGGFSTGPFKLWGQGTLVTVSSGGGGSGGGGSDVQMTQSPSSLSASVGDRVTITCRASENIYSGLAWYQQKPGKPPKLLIYRASTLASGVSSRFSGSGSGTDFTLTISSLQPEDFATYYCQGGYYSSSSTYIAFGCGTKVTVLGGGGGSGGGGSGGGGSGGGGSQSQVVESGGGLVQPGGSLRLSCAVSGFDLSSYAVSWVRQAPGKCLEWIGIIYPRANTYYASWAKGRFTISKDNSKNTVYLQMNSLRAEDTAVYFCARDRYDSGAYLYTTYFNLWGQGTLVTVSS
notes: trispecific anti-ROR1 x hSA x CD3 scMATCH3, single chain; also called 19-04-A10-sc06 scDb-o/28-21-D09-sc04 scDb-i/55-38-D07-sc06-scFv
Question: Which results are given for B5?
Answer: koff [9]: 0.0062 s⁻¹; Kd [10]: ≤ 0.13 nM; koff [10]: < 1e-05 s⁻¹; kon [10]: 76000 M⁻¹ s⁻¹; kon [11]: 380000 M⁻¹ s⁻¹; Kd [12]: 8.5 nM; ka2 [12]: 0.0068 s⁻¹; kd2 [12]: 0.0074 s⁻¹; EC50 (nM) Cytotoxicity (MDA-MB-231) [13]: 1.7 nM; EC50 [14]: 18.7 nM; Rel. maximum binding (MFIscMATCH3/MFIPRO2213) [14]: 3

B6: PRO2667 (bispecific antibody)
chain: AFELTQSPSSLSASVGDRVTITCQASESINSRLAWYQQKPGQPPKLLIYDASDLTSGVPSRFSGSGSGTDFTLTISSLQPEDFATYYCQGYGGSSTTTFGCGTKLTVLGGGGGSEVQLVESGGGRVQPGGSLRLSCAASGFSLSSYDMSWVRQAPGKGLAWIGASYASGPTYYASWAKGRFTISRDNSKNTVYLQMNSLRAEDTATYFCARGGWTGTSHSNIWGQGTQVTVSSGGGGSGGGGSGGGGSGGGGSDIQMTQSPSSLSASVGDRVTITCQSSQSVFSNNYLAWFQQKPGQSPKRLIYSASTLASGVPSRFSGSGSGTDFTLTISSLQPEDFATYYCLGSYACSSADCYVFGTGTKVTVLGGGGGSEVQLVESGGGRVQPGGSLRLSCAASGFSLSSYAMNWVRQAPGKCLEWIGHINAGDIAYYATWAKGRFTISRDNSKNTVYLQMNSLRAEDTATYFCARGAGGFSTGPFKLWGQGTQVTVSSGGGGSGGGGSDVQMTQSPSSLSASVGDRVTITCRASENIYSGLAWYQQKPGKPPKLLIYRASTLASGVSSRFSGSGSGTDFTLTISSLQPEDFATYYCQGGYYSSSSTYIAFGTGTKVTVLGGGGGSGGGGSGGGGSGGGGSQSQVVESGGGRVQPGGSLRLSCAVSGFDLSSYAVSWVRQAPGKGLEWIGIIYPRANTYYASWAKGRFTISKDNSKNTVYLQMNSLRAEDTATYFCARDRYDSGAYLYTTYFNLWGQGTQVTVSS
notes: trispecific anti-ROR1 x hSA x CD3 scMATCH3, single chain, modified VH domains; also called 19-04-A10-sc06(RTQ) scDb-o/28-21-D09-sc04 (RTQ) scDb-i/55-38-D07-sc02(RTQ)-scFv
Question: B6 was tested. Which koff [9] did it give?
Answer: 0.0041 s⁻¹

Question: What about the Kd [10] of the same binder?
Answer: 0.97 nM

Question: And the koff [10]?
Answer: 9.2e-05 s⁻¹

Question: What about the kon [10] of the same binder?
Answer: 95000 M⁻¹ s⁻¹

Question: What about the kon [11] of the same binder?
Answer: 540000 M⁻¹ s⁻¹

Question: What about the Kd [12] of the same binder?
Answer: 4.4 nM

Question: And the ka2 [12]?
Answer: 0.0045 s⁻¹

Question: And the kd2 [12]?
Answer: 0.0061 s⁻¹
